{"source": "the DeepSol protein solubility set", "test": "soluble on expression in E. coli; label from the status in PepcDB or PDB records", "data": [{"sequence": "MTAAARTPAFYLDLGVPDTVMGRFEMLSVIMILYFRRTKSSGVSGQEIAQEIVDAFFQDIDHSIRELGIGDQGVPKRMKKFAGMFYGRLESYAAALDASDCAALAAALRRNIYPQVDDEAPEMEGLAGWMMETSDALAAQSEETIATGSLTLPLPILEHHHHHH", "values": [{"measurement": "soluble on expression in E. coli", "value": "not soluble"}]}, {"sequence": "MAEASSLVGKLETEVEIKASAKKFHHMFTERPHHVSKATPDKIHGYGKLTVGKNKIEAVDPEKNLITFKVLEGDLMNEYKSFAFTLQVTPKQGESGSIAHWHLEYEKISEEVAHPETLLQFCVEISKEIDEHLLAEE", "values": [{"measurement": "soluble on expression in E. coli", "value": "soluble"}]}, {"sequence": "MGSDKIHHHHHHMEKKPLYHFMPGTMTWSFGTPGCNFKCANRQNWAISQMGQDKSIPLATPEAIVRNAMNTGCSSISCTYTEPTIFAEYALDVMQLARQTGLRNIWISNGYLSPLCLKTVTPWLDAINVGLQSMDDAFYRRVCGARLDPVLDSLRLIQESGMHLEITTLVIPGHSSDPAMLERLAGFIAHDLGTGVPWHIIPFYPEISWKMQDTPPTPAESIEQAFEIGRKAGLSFIYAGNAHSDTFCDQCSARLVGRKASPFGDYRIERFDTGGRCPVCHAPSPMRD", "values": [{"measurement": "soluble on expression in E. coli", "value": "not soluble"}]}, {"sequence": "MSLSANFSENISRLGLSSRSKQEKLAHLMETELTHLQASFIEAPTGLGKTYGYLLPILASGKGLVVSTATKVLQKQLVNDVAPKLGKTFGLKMAKIVGTKNYISLRKFSELLLNNTDGKNFEIFKMKILIWLTETRTGELDEVSKVMTNDDYFEVIRHDGYVNTKQLHYEQDFWLKAQKEAEQAEIKVVNHAYLIERLADYPETFLENRVLVVDEAQQLFPIMENAGQKSLKITDELIKIDAETSENPQLTKRLQESLVFQLNKKELDLNKIKIDADELGLRNLSALLEADNQIVWRENGMLYASDQDFYNFERLIPKNTKLFMLGATLSLSKDKPSFPDLLGFTDYRFFKIEGNQATNQQLLTVTDAPNIKNLSLIDYADYTANSIGELSKLNLPMVVLFTSKMALTFVAEKLSAEGFEILAQDINGSPAQIKKKFDKGEGKILLGLGSFWEGVDFDKQNQVILVIPRLPFATPDDILTKKYAQKFENPFYDFNVPMATLKLRQAIGRVNRRKNQYSSIVVLDKRLAGKSYAKRMRKNLSETLPVKMLNLLDTISEIKNFLIEGHHHHHH", "values": [{"measurement": "soluble on expression in E. coli", "value": "not soluble"}]}, {"sequence": "MGSDKIHHHHHHMPTKRGQIRHDPSSKKATTMDLNRRPVASLWIGESLQYLNQLCLKSHLRHGHPVTLYCTDKVTNAPEGVVVKPATDIMDIPMNIVEQTSASFLSNVFRYKMIQQTGAIWIDCDAFCHAPFPDEWEHIYAGHGMRGALNCGVVGIPQQGELMDQLLDYYDNLPDYPPWWNPRQRKRMDRQDSNLPLAVRIYKTERTAFGPQAFTHFARETGDIDRAMTSDVLYPVPFQLNDIFYDPHGRVEGWFSENTRSVHLYTNGTKPWWRKNPPLENSYAWRMCQEVGITPEDALE", "values": [{"measurement": "soluble on expression in E. coli", "value": "not soluble"}]}, {"sequence": "RNRFTRRKIVYIHEGMNVPLLGYNAFGLIDRGTNLIQVRGSTGCNLSCIFCSVDEGPYSRTRNLDFVVDVDYLMKWFDWVAKEKGKGLEAHLDAQGEPLLYPYIVELVQELRSHPHVSVISMQSNGVLLDEKLVEELAEAGLDRVNLSIHSLDPEKAKMLMGMKNYDLNHVLEMAEALVNAGIDVLIAPVIIFGINDNEAEAFIEFARRIGAGKRWPALGFQNYVPYKFGRNPVIAKPVPFKEFYEWLRMLEEKTGMRPLVLKPHHFGMHPRPFIPLAFKR", "values": [{"measurement": "soluble on expression in E. coli", "value": "not soluble"}]}, {"sequence": "MKEKIPFYNEKEFHDMMKKTKKGTFSGWYIIDKDNKSVEFSGNFNRQFKLNKPVIPVNTEYVTRKEFNEYKDSNDQRLTKIETTLAAQGEQIRIQGEQIKELQIEQKAQGETLKLILQTLQKMSDRLNKMDVRLDKLESKLEHHHHHH", "values": [{"measurement": "soluble on expression in E. coli", "value": "not soluble"}]}, {"sequence": "EFPEITEEMEKEIKNVFRNGNQDEVLSEAFRLTITRKDIQTLNHLNWLNDEIINFYMNMLMERSKEKGLPSVHAFNTFFFTKLKTAGYQAVKRWTKKVDVFSVDILLVPIHLGVHWCLAVVDFRKKNITYYDSMGGINNEACRILLQYLKQESIDKKRKEFDTNGWQLFSKKSQEIPQQMNGSDCGMFACKYADCITKDRPINFTQQHMPYFRKRMVWEILHRKLL", "values": [{"measurement": "soluble on expression in E. coli", "value": "soluble"}]}, {"sequence": "MIVKTEEELQALKEIGYICAKVRNTMQAATKPGITTKELDNIAKELFEEYGAISAPIHDENFPGQTCISVNEEVAHGIPSKRVIREGDLVNIDVSALKNGYYADTGISFVVGESDDPMKQKVCDVATMAFENAIAKVKPGTKLSNIGKAVHNTARQNDLKVIKNLTGHGVGLSLHEAPAHVLNYFDPKDKTLLTEGMVLAIEPFISSNASFVTEGKNEWAFETSDKSFVAQIEHTVIVTKDGPILTTKIEEE", "values": [{"measurement": "soluble on expression in E. coli", "value": "soluble"}]}]}
